Test results published in patent US8357523B2, “Beta-glucosidase variant enzymes and related polynucleotides” (Codexis, Inc., priority 2009, dated 2013).
Positions count from the first letter of the chain named.

B1: 1 (protein)
chain: STAIAQEGAAPAAILHPEKWPRPATQRLIDPAVEKRVDALLKQLSVEEKVGQVIQGDIGTITPEDLRKYPLGSILAGGNSGPNGDDRAPPKEWLDLADAFYRVSLEKRPGHTPIPVLFGIDAVHGHGNIGSATIFPHNIALGATHDPELLRRIGEVTAVEMAATGIDWTFAPALSVVRDDRWGRTYEGFSEDPEIVAAYSAAIVESVQGKFGSKDFMAPGRIVASAKHFLADGGTDQGRDQGDARISEDELIRIHNAGYPPAIDAGVLTVMASFSSWQGIKHHGHKQLLTDVLKGQMGFNGFIVGDWNAHDQVPGCTKFNCPTSLIAGLDMYMAADSWKQLYENTLAQVKDGTIPMARLDDAVRRILRVKVLAGLFEKPAPKDRPGLPGLETLGSPEHRAVGREAVRKSLVLLKNDKGTLPLSPKARVLVAGDGADNIGKQSGGWTISWQGTGNRNDEFPGATSILGGIRDAVADAGGSVEFDVAGQYKTKPDVAIVVFGEEPYAEFQGDVETLEYQPDQKQDLALLKKLKDQGIPVVAVFLSGRPMWVNPELNASDAFVAAWLPGTEGGGVADVLFTDKAGKVQHDFAGKLSYSWPRTAAQTTVNRGDADYNPLFAYGYGLTYKDKSKVGTLPEESGVPAEARQNAGIYFRAGALRLPGRFL
B2: 3 (protein)
chain: B1 chain with S206G, Q287E
B3: 12 (protein)
chain: B1 chain with A202N, S206G
B4: 11 (protein)
chain: B1 chain with V159L, S206G
B5: 8 (protein)
chain: B1 chain with A162T, S206G
B6: 6 (protein)
chain: B1 chain with A162S, S206G
B7: 9 (protein)
chain: B1 chain with A201G, S206G
B8: 2 (protein)
chain: B1 chain with N128K, S206G
B9: 13 (protein)
chain: B1 chain with A198C, S206G
B10: 10 (protein)
chain: B1 chain with A198M, S206G
B11: 7 (protein)
chain: B1 chain with S206G, F211Y
B12: 5 (protein)
chain: B1 chain with H145R, S206G
B13: 4 (protein)
chain: B1 chain with S206G, D311G, D532G, T599A

Assay: High throughput cellobiose assay: fold improvement in cellobiase activity of CelA variants over a control enzyme (Tables 2A-2D, 3, 5, 6, 7)
Type: biochemical
Settings: 3.3 g/l cellobiose, 50° C. and pH 6.5; compared to native CelA (SEQ ID NO: 4)
Procedure: β-glucosidase activity was also determined using a cellobiose assay, which used cellobiose as substrate. In a total volume of 100 μL, 25 μL clear media supernatant containing CelA enzyme was added to 10 g/L cellobiose (Fluka Cat. No. 22150, Sigma-Aldrich, Inc., St. Louis, Mo.) in 100 mM sodium phosphate buffer (pH 6-7) or sodium acetate buffer (pH 5-5.5). The reaction was incubated at 45-70° C. for an appropriate time (25 minutes to overnight depending on the enzyme concentration) while shaking. Glucose production was determined using an enzymatic glucose assay (K-GLUC, Megazyme, Ireland). 10 μl of each reaction was added to 190 μl GOPOD reagent (supplied as part of the K-GLUC assay kit). The reaction was incubated at 45° C. for 20 minutes and the absorbance of the solution was measured at 510 nm. The GOPOD reagent contains 50 mM Potassium phosphate buffer pH7.4, 0.011M p-hydroxybenzoic acid, 0.008% w/v sodium azide, glucose oxidase (>12,000 U/L), peroxidase (>650 U/L) and 80 mg/L 4-aminoantipyrine. The glucose oxidase enzyme in the reagent reacts with any glucose present in the sample and produces hydrogen peroxide which then reacts with the 4-aminoantipyrine to produce a quinoneimine dye in quantities proportionate with the amount of glucose present and can be measured spectrophotometrically at 510 nm. Detectable β-glucosidase activity was observed under high throughput screening conditions (i.e., pH 7, 50° C.).
Plasmid libraries containing variant CelA genes were transformed into B. megaterium and plated on Luria-Bertani (LB) agar plates containing 3 μg/mL tetracycline with a DM3 regeneration media overlay (400 mM sodium succinate dibasic, pH 7.3, 0.5% casamino acids, 0.5% yeast extract, 0.4% K2HPO4, 0.2% KH2PO4, 20 mM MgCl2, 0.5% glucose and 0.2% BSA). After incubation for at least 18 hours at 30° C., colonies were picked using a Q-bot® robotic colony picker (Genetix USA, Inc., Beaverton, Oreg.) into shallow, 96-well well microtiter plates containing 180 μL, LB and 10 μg/mL tetracycline. Cells were grown overnight at 37° C. with shaking at 200 rpm and 85% humidity. 10 μL of this culture was then transferred into 96-well microtiter plates (deep well) containing 390 μL A5-glucose-xylose medium and 10 μg/mL tetracycline as described in example 2. The plates were then incubated at 37° C. with shaking at 250 rpm and 85% humidity overnight (˜18-24 hours). The deep plates were centrifuged at 4000 rpm for 15 minutes and the clear media supernatant containing the secreted CelA enzyme was used for the high throughput pNPG or cellobiose assay of Example 5.
The CelA libraries were screened in high throughput using the cellobiose assay of Example 5 (Substrate: cellobiose; pH: 5-7; temperature: 45-72° C.; time: 2-24 hrs) for the identification of improved variants.
In shallow, 96-well microtiter plates 25 μL of media supernatant was added to 75 μL of […] cellobiose in 150 mM sodium acetate buffer pH 5-5.5 or 150 mM sodium phosphate buffer pH6-7. After sealing with aluminum/polypropylene laminate heat seal tape (Velocity 11 (Menlo Park, Calif.), Cat#06643-001), the plates were shaken at 45-65° C. for up to 24 hrs. The plates were centrifuged for 5 minutes at 4000 rpm. In shallow well clear microtiter plates, 10 μL of the reaction mixture was added to 190 μL of GOPOD reagent (as in example 5B) per well. The solutions were incubated at 45° C. for 1 hour and absorbance was measured at 510 nm for the identification of active CelA variants.
Improved CelA variants were identified from the high throughput screening of various CelA variant libraries as described in Example 7, using the cellobiose assay of Example 5 using 3.3 g/l cellobiose at temperatures from 50°-55° C. at a pH in the range of 5.3-6.5. Tables 2A, 2B, 2C, and 2D and Table 3 depict the improvement in activities of CelA variants encompassed by the invention. The assay conditions are indicated in each table. […]

Molecule | Fold improvement over wildtype CelA
B1 | + (+ = 1.1 to 2.0 fold improvement over native CelA (SEQ ID NO: 4))
B2 | + (+ = 1.1 to 2.0 fold improvement over native CelA (SEQ ID NO: 4))
B3 | + (+ = 1.1 to 2.0 fold improvement over native CelA (SEQ ID NO: 4))
B4 | + (+ = 1.1 to 2.0 fold improvement over native CelA (SEQ ID NO: 4))
B5 | + (+ = 1.1 to 2.0 fold improvement over native CelA (SEQ ID NO: 4))
B6 | + (+ = 1.1 to 2.0 fold improvement over native CelA (SEQ ID NO: 4))
B7 | + (+ = 1.1 to 2.0 fold improvement over native CelA (SEQ ID NO: 4))
B8 | + (+ = 1.1 to 2.0 fold improvement over native CelA (SEQ ID NO: 4))
B9 | + (+ = 1.1 to 2.0 fold improvement over native CelA (SEQ ID NO: 4))
B10 | + (+ = 1.1 to 2.0 fold improvement over native CelA (SEQ ID NO: 4))
B11 | ++ (++ = 2.1 to 2.6 fold improvement over native CelA (SEQ ID NO: 4))
B12 | + (+ = 1.1 to 2.0 fold improvement over native CelA (SEQ ID NO: 4))
B13 | + (+ = 1.1 to 2.0 fold improvement over native CelA (SEQ ID NO: 4))
